These results are taken from patent US5889173A, “DNA encoding multifunctional neurothrophic factors” (priority 1996, dated 1999).

Assay [1] has as its system E8 chick sympathetic ganglia. Put plainly: Neurite outgrowth from explanted E8 chick sympathetic ganglia. The assay is classed as cell-based. As to conditions: for Biological Activity % of wild type (neurite outgrowth, sympathetic ganglia): explants of embryonic sympathetic ganglia, relative to wt NGF. As to the method: Fibre outgrowth was scored on a semiquantitative scale in biological units (BU) by comparison to standards obtained with purified mouse NGF, for which 1 BU is equivalent to approximately 5ng/ml. The concentration of each protein that gave 0.6 BU in this scale was determined, and used to calculate the relative activity compared to that obtained with wt NGF.

Assay [2] concerns TrkA. Description: Competitive TrkA receptor binding: displacement of 125I-NGF from rtrkA-3T3 cells. Particulars: 125I-NGF displacement, relative binding from IC50 versus wt NGF. As to the method: NIH3T3 fibroblasts expressing TrkA, TrkB or TrkC were used at 2 to 1-33 10^6 cells/ml. […] All components were added at the same time and the cells were collected by centrifugation after equilibrium was reached (90-120 minutes incubation). Cell pellets were then counted in a gamma counter. […] Nonspecific binding was measured in a parallel incubation to which 300 to 1000-fold molar excess of unlabelled purified factor was added.

Assay [3] relates to dissociated E8 chick sympathetic neurons. Description: Survival of dissociated E8 chick sympathetic neurons. Particulars: 2 ng/ml. The assay is classed as cell-based. As to the method:
(§1) Dissociated neurons from chick E8 sympathetic and nodose ganglia were preplated on plastic for 2 hr and then cultured in 96 well-plates coated with poly-L-ornithine and laminin at a density of 800-1000 cells/well. Serial dilutions of conditioned media containing equivalent amounts of recombinant proteins were added at the time of plating and neuronal survival was determined after 36-48 hr by phase contrast microscopy, scoring the number of surviving neurons in the entire well.

Another assay concerns TrkB and TrkA. As to conditions: literature; cited from earlier work.
For assay [4], the system named is dissociated E8 chick nodose neurons. Put plainly: Survival of dissociated E8 chick nodose ganglion neurons. The assay is classed as cell-based. Particulars: for Nodose neurons rescued (survival): saturating concentrations (20-50 ng/ml). As to the method:
as §1

Assay [5] has as its system TrkB. Description: Tyrosine phosphorylation of TrkB receptors in rtrkB-3T3 cells. The assay is classed as cell-based. The procedure:
(§2) Plates were incubated 15 minutes at 4° C. after which insoluble material was removed by centrifugation. Cell lysates were normalized for protein content before immunoprecipitation. […] After 2 hr at 4° C., immunocomplexes were collected with Protein A-Sepharose (Pharmacia, Sweden), washed in lysis buffer and boiled for 5 minutes before SDS/PAGE. After electrophoresis, gels were blotted to nitrocellulose membranes, reacted with anti-phosphotyrosine monoclonal antibody 4G10 (UBI, New York) and developed with the ECL Western Detection System (Amersham, UK). Appropriately exposed autoradiograms of phosphotyrosine blots were used for densitometric scanning.

Assay [6] has as its system TrkB. Description: Competitive TrkB receptor binding: displacement of 125I-BDNF from rtrkB-3T3 cells. Particulars: for Receptor Binding % of wild type (TrkB): rtrkB-3T3 cells, 125I-BDNF displacement, relative binding from IC50 versus wt BDNF. The procedure:
Purified mouse NGF and BDNF were labeled with ^125 I by the lactoperoxidase method to an average specific activity of 1×10^8cpm/μg. For the labeling of BDNF, the modifications described by Rodriguez-Tebar et al. ([Rodriguez-Tebar, 1992]) were used. NIH3T3 fibroblasts expressing TrkA, TrkB or TrkC were used at 2 to 1-33 10^6 cells/ml. Steady state binding was measured in competition assays performed at 4° C. using 1.5×10^-9 M ^125 I-BDNF and serial dilutions of conditioned media containing equivalent amounts of wt or mutated NGF protein. All components were added at the same time and the cells were collected by centrifugation after equilibrium was reached (90-120 minutes incubation). Cell pellets were then counted in a gamma counter. […] Nonspecific binding was measured in a parallel incubation to which 300 to 1000-fold molar excess of unlabelled purified factor was added. All results were corrected for this nonspecific binding, which was less than 10% (for NGF) or 30% (for BDNF) of total binding. The concentration of each chimeric, mutant and wild type molecule that gave 50% binding (IC50) was determined, and relative binding was calculated using the relationship:(mutant IC50 /wild type IC50)×100.

The next assay has as its system TrkC. Description: Tyrosine phosphorylation of TrkC receptors in Trk-expressing cells. The assay is classed as cell-based. Particulars: 100 ng/ml. The procedure:
A confluent 10 cm plate containing about 10^7 rtrk-3T3 or rtrkB-3T3 cells was treated for 5 minutes at 37° C. with wt, chimeric or mutant factors and subsequently lysed with 1 ml of ice-cold buffer containing 1% NP40, 20 mM Tris pH 8.0, 137 mM NaCl, 2 mM EDTA, 10% glycerol, 1 mM PMSF, 0.15 U/ml aprotinin, 20 μM leupeptine and 1 mM Na orthovanadate. Plates were incubated 15 minutes at 4° C. after which insoluble material was removed by centrifugation. Cell lysates were normalized for protein content before immunoprecipitation. Trk immunoprecipitation was performed by incubating lysates with 1 μl of anti-TrkB polyclonal antiserum 443 ([Soppet, 1991]) which recognizes TrkA, TrkB and TrkC. After 2 hr at 4° C., immunocomplexes were collected with Protein A-Sepharose (Pharmacia, Sweden), washed in lysis buffer and boiled for 5 minutes before SDS/PAGE. After electrophoresis, gels were blotted to nitrocellulose membranes, reacted with anti-phosphotyrosine monoclonal antibody 4G10 (UBI, New York) and developed with the ECL Western Detection System (Amersham, UK). Appropriately exposed autoradiograms of phosphotyrosine blots were used for densitometric scanning.

Assay [7] concerns TrkA. Description: Tyrosine phosphorylation of TrkA receptors in rtrkA-3T3 cells. The assay is classed as cell-based. As to conditions: 100 ng/ml. The procedure:
as §2

Regarding “wild-type NT-3: recombinant wild-type rat neurotrophin-3 (SEQ ID NO. 3) produced in COS cells [reference compound]”, the “Biological activity, neurite outgrowth from sympathetic ganglia (in words)” value in assay [1] is on record as “only a marginal effect”. Also, the “Receptor Binding % of wild type (TrkA)” value in the assay on TrkA [2] is “about 3 % of wild type”. For the same molecule, the “Survival of dissociated sympathetic neurons (in words)” value in assay [3] is “no survival”. Also, the “Efficiency to mediate biological effects through TrkB and TrkA lower than BDNF or NGF” value with TrkB and TrkA is “about 100 fold”. Also, the “Nodose neurons rescued (survival)” value in assay [4] turned out to be 25%.

B1: wt BDNF: recombinant wild-type brain-derived neurotrophic factor (SEQ ID NO. 2) produced in COS cells (protein)
chain: HSDPARRGELSVCDSISEWVTAADKKTAVDMSGGTVTVLEKVPVSKGQLKQYFYETKCNPMGYTKEGCRGIDKRHWSNQCRTTQSYVRALTMDSKKRIGWRFIRIDTSCVCTLTIKRGR
Consider B1, for which the “Biological Activity % of wild type (neurite outgrowth, sympathetic ganglia)” value in assay [1] is < 0,2 % of wild type. Moreover, the “Receptor Binding % of wild type (TrkA)” value in the assay with TrkA [2] is listed as < 0,2 % of wild type. For the same molecule, the “EC50 of TrkB receptor phosphorylation” value in the assay with TrkB [5] (dose-response, densitometric scanning of phosphotyrosine blots, rtrkB-3T3 cells) is 5 ng/mL. The “Receptor Binding % of wild type (TrkB)” value with TrkB [6] is listed as 100 % of wild type. Moreover, the “Nodose neurons rescued (survival)” value in assay [4] stood at 40%.

B2: wt NGF: recombinant wild-type rat nerve growth factor (SEQ ID NO. 1) produced in COS cells (protein)
chain: SSTHPVFHMGEFSVCDSVSVWVGDKTTATDIKGKEVTVLGEVNINNSVFKQYFFETKCRAPNPVESGCRGIDSKHWSNYCTTTHTFVKALTTDDKQAAWRFIRIDTACVCVLSRKAARRG
Turning to B2, in [1], the “Biological Activity % of wild type (neurite outgrowth, sympathetic ganglia)” value is reported as 100 % of wild type. Besides, the “Receptor Binding % of wild type (TrkA)” value with TrkA [2] is 100 % of wild type. For the same molecule, in the assay on TrkB [6], the “Receptor Binding % of wild type (TrkB)” value was < 0,2 % of wild type. Further, the “Survival of nodose neurons (in words)” value in assay [4] is given as “failed to rescue neurons”.

B3: PNT-1: NT-3 with variable region V replaced from BDNF and amino terminus (residues 3-9) replaced from NGF (protein)
chain: B2 chain
On to B3, for which the “Biological activity, neurite outgrowth from sympathetic ganglia (in words)” value in assay [1] was “efficiently stimulated neurite outgrowth”. For the same molecule, in [1] (dose-response curves), the “Potency in neurite outgrowth from sympathetic ganglia lower than wild type NGF” value is reported as 15 fold. Besides, the “Receptor Binding % of wild type (TrkA)” value in the assay on TrkA [2] is recorded as ~50 % of wild type. Also, in the assay on TrkC, the “TrkC tyrosine phosphorylation (in words)” value was “efficient tyrosine phosphorylation”. Moreover, the “Survival of dissociated sympathetic neurons (in words)” value in assay [3] is “correlated with survival of dissociated sympathetic neurons”. In the assay with TrkA [7], the “TrkA tyrosine phosphorylation / activation (in words)” value is listed as “efficient tyrosine phosphorylation”. Also, the “TrkB tyrosine phosphorylation / activation (in words)” value with TrkB [5] (100 ng/ml) is listed as “efficient tyrosine phosphorylation”. Moreover, in the assay with TrkB [6], the “TrkB receptor binding (in words)” value is “not changed”. Further, the “Increase of nodose neuron survival compared to NT-3” value in [4] (saturating concentrations) was approximately 2 fold. Moreover, the “Nodose neurons rescued (survival)” value in assay [4] is 45%.
